Source: paper PMC3507880, “Rationale-Based Engineering of a Potent Long-Acting FGF21 Analog for the Treatment of Type 2 Diabetes” (PLoS ONE, 2012)
Changes are numbered by the printed parent chain. Each block holds one binder with its values, some of them ahead of it.

Key:
Q9NSA1 = assay: SEC; SEC-HPLC (Bio-Sil SEC-250, 2x PBS with 2% isopropyl alcohol); 65 mg/ml in 10 mM potassium phosphate, 5% sorbitol, pH 8.0; stored at 25°C or 4°C for 2 to 9 days; high molecular weight species as % of total
human βKlotho = biological target: T1, human βKlotho (human, UniProt Q86Z14 1-996); assay: cell-based or functional assay
T1 sequence (looked up): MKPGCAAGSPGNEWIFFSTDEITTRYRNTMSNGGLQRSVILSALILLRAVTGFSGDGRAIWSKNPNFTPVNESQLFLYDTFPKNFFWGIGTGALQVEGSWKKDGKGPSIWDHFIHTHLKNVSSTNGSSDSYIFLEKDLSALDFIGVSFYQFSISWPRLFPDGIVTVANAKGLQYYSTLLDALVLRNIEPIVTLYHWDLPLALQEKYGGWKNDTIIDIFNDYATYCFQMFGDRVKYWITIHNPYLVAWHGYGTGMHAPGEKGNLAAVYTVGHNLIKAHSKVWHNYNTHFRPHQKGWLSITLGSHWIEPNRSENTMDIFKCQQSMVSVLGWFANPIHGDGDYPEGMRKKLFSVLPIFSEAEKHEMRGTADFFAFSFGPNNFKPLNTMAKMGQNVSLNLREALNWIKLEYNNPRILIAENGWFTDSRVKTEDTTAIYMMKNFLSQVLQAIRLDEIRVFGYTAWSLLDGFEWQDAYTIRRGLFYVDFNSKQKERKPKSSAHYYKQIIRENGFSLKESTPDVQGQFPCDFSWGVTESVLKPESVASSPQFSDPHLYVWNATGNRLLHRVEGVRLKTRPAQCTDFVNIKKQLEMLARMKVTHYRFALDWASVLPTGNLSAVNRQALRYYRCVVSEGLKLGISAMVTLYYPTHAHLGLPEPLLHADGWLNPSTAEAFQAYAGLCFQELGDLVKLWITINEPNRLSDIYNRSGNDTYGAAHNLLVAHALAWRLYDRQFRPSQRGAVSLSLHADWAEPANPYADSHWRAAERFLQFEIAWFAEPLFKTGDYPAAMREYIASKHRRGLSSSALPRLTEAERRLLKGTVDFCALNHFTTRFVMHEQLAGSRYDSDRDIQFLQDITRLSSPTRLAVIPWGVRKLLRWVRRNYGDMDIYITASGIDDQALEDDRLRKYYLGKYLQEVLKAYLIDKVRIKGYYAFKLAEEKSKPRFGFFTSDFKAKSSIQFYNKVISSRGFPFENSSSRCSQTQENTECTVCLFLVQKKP

B1: Fc-FGF21(RG) (protein)
chain: HPIPDSSPLLQFGGQVRQRYLYTDDAQQTEAHLEIREDGTVGGAADQSPESLLQLKALKPGVIQILGVKTSRFLCQRPDGALYGSLHFDPEACSFRERLLEDGYNVYQSEAHGLPLHLPGNKSPHRDPAPRGPARFLPLPGLPPALPEPPGILAPQPPDVGSSDPLSMVGGSQGRSPSYAS
aggregates, percent of total, over 9 days (Q9NSA1): the amount of aggregates remained below 3% at all tested conditions

B2: wild type human mature FGF21 (protein)
chain: B1 chain with R98L, G171P
high molecular aggregates, percent of total, day 5 (Q9NSA1): the high molecular aggregates accounted for 50% and 25% of total native FGF21 and Fc-FGF21, respectively

Elk1-dependent luciferase reporter in 293T cells stably overexpressing human βKlotho or CHO cells overexpressing human βKlotho and human FGFR1c; maximal activity relative to native FGF21 (human βKlotho): ~80%
B3: Fc-FGF21 (N-terminal Fc fusion of human mature FGF21, wild type) (Fc fusion, UniProt Q9NSA1 29-209, looked up)
chain: B1 chain with R98L, G171P
high molecular aggregates, percent of total, day 5 (Q9NSA1): the high molecular aggregates accounted for 50% and 25% of total native FGF21 and Fc-FGF21, respectively
